Results published in patent publication US10365283B2, “Activated HER3 as a marker for predicting therapeutic efficacy” (U3 PHARMA GMBH, priority 2006, dated 2019).

Target: T1, pHer3 in BxPC3 and Calu-3 xenografts (Homo sapiens, UniProt P21860)
T1 construct: on FFPE sections of BxPC3 xenografts; endogenous in cells; host or cells: BxPC3 (pancreas cancer) and Calu-3 (NSCLC) human tumour cells grown as xenografts in mice
Assay: Immunohistochemical staining with anti-pHer3 antibody 21D3 on FFPE sections of xenograft tumours after antibody administration
Assay type: in vivo
Conditions: FIGS. 7, 8 and 11, versus control IgG1
Protocol: FIG. 7: Immunohistochemical staining with rabbit monoclonal anti-p Her3 antibody (Cell Signalling 21D3, Lot 4 1:650 dilution, 0.074 ug/ml) on FFPE sections of BxPC3 xenografts, 20×. • (A) and (B) Tumour after administration of control IgG1 500 μg/mouse • (C) and (D) Tumour after administration of antibody U3-1287 500 μg/mouse • Stainings were done in duplicate on three independent xenografts.
FIG. 8: Immunohistochemical staining with rabbit monoclonal anti-pHer3 antibody (Cell Signalling 21D3, Lot 4 1:650 dilution, 0.074 ug/ml) on FFPE sections of BxPC3 xenografts, 20×. • (A) Tumour after administration of antibody U3-1287 25 μg/mouse • (B) Tumour after administration of antibody […] 100 μg/mouse • (C) Tumour after administration of antibody U3-1287 200 μg/mouse • (D) Tumour after administration of antibody U3-1287 500 μg/mouse • (E) Tumour after administration of control IgG1 500 μg/mouse. • Stainings were done in duplicate on three independent xenografts.
FIG. 11: Immunohistochemical staining with rabbit monoclonal anti pHer3 antibody (Cell Signalling 21D3, Lot 4 1:8000 dilution, 0.006 ug/ml) on FFPE sections Calu-3 xenografts, 40×. • (A) and (B) Tumour after administration of control IgG1 25 mg/kg 72 h • (C) and (D) Tumour after administration of antibody U3-1287 25 mg/kg 72 h • Stainings were done in duplicate on five independent xenografts.
Using a microtome, 2-4 μm thin sections were cut, mounted on silanized glass slides and dried at 60° C. for 30 minutes and at 38° C. overnight. Deparaffinisation and rehydration of the specimen was achieved by incubating 2×5 minutes in Xylol, 2×2 minutes in 100% ethanol and 2 minutes each in 96%, 80% and 70% ethanol. After rinsing 20 seconds in distilled water, the slides were incubated for two minutes in PBS. […]
The anti-tumor efficacy of a HER modulator were evaluated in human xenograft tumor studies. In these studies, human tumors were grown as xenografts in immunocompromised mice and therapeutic efficacy was measured by the degree of tumor growth inhibition in response to administrations of the HER modulator. […]

anti-HER3 antibody: anti-HER3 antibody U3-1287 administered to mice bearing BxPC3 or Calu-3 xenografts
reduction: membrane staining intensity (pHer3) | pHer3 positive cells compared to whole cell number in the tumour | tumour cells compared to whole cell number in the tumour
